Test results: patent publication US11466286B2, “Methods and compositions for conferring and/or enhancing herbicide tolerance using protoporphyrinogen oxidase or variant thereof” (FarmHannong Co., Ltd., priority 2016, dated 2022)
Where a chain is given by its changes, count along the chain named. Names may count otherwise.

Tests used:
[1] = tested on: A. thaliana T3 lines with CyPPO10 wild type or mutants (F360M, F360I, F360L, F360C, A167C), CyPPO13 wild type or mutants (F373M, F373C, F373I, A177C …); assay: Seed germination of A. thaliana transformants on herbicide media; format: in vivo, Arabidopsis thaliana; conditions: 25 μM glufosinate, 7 days after sowing
[2] = tested on: CyPPO10; assay: PPO enzyme activity and IC50 by herbicides, CyPPO10 wild type and variants (MBP-PPO fusion); format: biochemical, Thermosynechococcus elongatus BP-1; conditions: PPO enzyme activity of CyPPO10 protein, wild type = 100
How it was run: (§1)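 MBP-fused wild-type and variant CyPPO10 or CyPPO13 were expressed in E. coli BL21(DE3) and purified. After a 30 min oxygen-depleting preincubation with glucose oxidase-catalase in 50 mM Tris-Cl pH 8.0, 50 mM NaCl and 0.04% Tween 20, reactions used 50 μM substrate for 30 min at room temperature. Protoporphyrin IX fluorescence (ex 405/em 633 nm) was quantified against a standard curve.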

[3] = tested on: A. thaliana; assay: Seed germination of A. thaliana transformants on ½ MS media containing herbicides; format: in vivo, Arabidopsis thaliana; conditions: T3 lines; 25 μM glufosinate, 25 μM glufosinate+70 nM tiafenacil, or 25 μM glufosinate+30 nM tiafenacil+40 nM saflufenacil; 7 days after sowing
Source text: T3 generation seeds of each transformant were sown in ½ MS media containing herbicides. Col-0 ecotype (wild type Arabidopsis) seeds were used as a control. The kinds of herbicides and concentration are as follows:
In FIGS. 31a to 31c, 10-3 refers to CyPPO10 wild type, 10FM-4-7 to the CyPPO10 F360M transgenic line, 10FL-1-9 to the CyPPO10 F360L transgenic line, 10FC-3-5 to the CyPPO10 F360C transgenic line, 10AC-5-4 to the CyPPO10 A167C transgenic line, 13-1 to CyPPO13 wild type, 13FM-3-1 to the CyPPO13 F373M transgenic line, 13FC-1-1 to the CyPPO13 F373C transgenic line, 13FI-2-1 to the CyPPO13 F373I transgenic line, 13AC-1-3 to the CyPPO13 A177C transgenic line, CyPPO13_ALFL to the CyPPO13 A177L+F373L transgenic line, and CyPPO13_ALFI to the CyPPO13 A177L+F373I transgenic line, respectively.

[4] = tested on: PPO-deficient BT3 E. coli (ΔPPO); assay: Tiafenacil tolerance of BT3 E. coli transformed with CyPPO10, CyPPO13 or AtPPO1 genes (pACBB vector); format: cell-based; conditions: tiafenacil 0 μM; PPO function complementation
Procedure: After transforming PPO-deficient BT3 E. coli (ΔPPO) with CyPPO10 or CyPPO13, the transformed BT3 (ΔPPO) was cultured on LB agar plates containing PPO-inhibiting herbicide to examine the growth level of the transformed BT3 (ΔPPO). BT3 (ΔPPO) strain was obtained from Hokkaido University (Japan). The BT3 (ΔPPO) strain is deficient in hemG-type PPO and has kanamycin tolerance (refer to “Watanabe et al., Dual targeting of spinach protoporphyrinogen oxidase II to mitochondria and chloroplasts by alternative use of two in-frame […], JBC 2001 276(23):20474-20481; Che et al., Molecular Characterization and Subcellular Localization of Protoporphyrinogen Oxidase in Spinach Chloroplasts, Plant Physiol. 2000 September; 124(1):59-70”).
The cloned plasmid was added to 100 μl of BT3 competent cell (Hokkaido University; Japan) respectively, thereby transforming by a heat shock method. The transformed E. coli with each PPO gene was cultured in LB (Luria-Bertani) agar media comprising Chloramphenicol (Duchefa).
For seed culture of E. coli transformed with respective genes, each single colony of E. coli transformant as provided above was cultured in 3 ml of LB broth containing chloramphenicol overnight (220 rpm, 37° C.), and 50 to 100 μl were subcultured in a new 3 ml of LB broth, and they were cultured until absorbance (OD600) became 0.5 to 1, and they were diluted with LB broth to absorbance (OD600) of 0.5. The diluted solution was serially diluted again 5 times by a factor of one tenth with LB broth. […] The LB Agar media were incubated at 37° C., under light condition, and level of inhibiting growth was observed after 16 to 20 hours of incubation.
Plant physiol. 2003 133:736-747).

[5] = tested on: A. thaliana; assay: Herbicide spray on A. thaliana transformants, injury level judged at the 7th day; format: in vivo, Arabidopsis thaliana; conditions: A. thaliana transformants T2, tiafenacil 25 μM spray
[6] = tested on: CyPPO13; assay: PPO enzyme activity and IC50 by herbicides, CyPPO13 wild type and variants (MBP-PPO fusion); format: biochemical, Synechococcus sp. JA-3-3Ab; conditions: PPO enzyme activity of CyPPO13 protein, wild type = 100
How it was run: as §1

## CP(=O)(O)CCC(N)C(=O)O (stereo not shown) [glufosinate]
[1]
  seed germination: germinated

B1: CyPPO10 WT: PPO protein derived from Thermosynechococcus elongatus BP-1, amino acid sequence SEQ ID NO: 2 (protein)
chain: MIEVDVAIVGGGLSGLSVAWRLQRSAPHYSGVLLEASDRLGGNITTQAAEGFVWELGPNSFAPTPALLQLIAEVGLHSELIRGDRHLPRYIYWRGELYPLEPTRPLALATSNLLSPWGKVRAALGALGFVPPYLGSGDESVDSFFRRHLGQEVAERLVAPFVSGVYAGDPQQLSAAAAFRRIAQLEKLGGSLIAGALRLRRQQPPQPKPPAQVQMRPGELGSFREGLAALPRAIAQQLKAPLHLQTPVEAITPEPKGGYLLRSGEQTWHARSVVLATPAYQTAELVAPFQPAIARALATIPYPTVACVVLAYPAGLGRSVRPGFGVLVPRGQGIRTLGTIWSSCLFPQRTPAGWQVFTSFIGGATDPDLASLREEAIVEQVQQDLTRLLDLPAAKARLLGMKVWRRAIPQYIVGYPQQWQQVTHALTQTPGLFLCSNYAEGVALGDRVEHGNRTAAAVAAYLAGGQS
modifications: Synthetic CyPPO10
[2]
  Activity (%): 100%
[3]
  Seed germination in media containing herbicides: germinated
[4]
  Growth of BT3 transformant on medium containing no herbicide: recovered

B2: CyPPO10 A167L + F360M: CyPPO10 (SEQ ID NO: 2) PPO variant (protein)
chain: B1 chain with A167L, F360M
modifications: Synthetic CyPPO10
[2]
  Activity (%): 80%
[5]
  Average injury index: 2 (Over 20% and less than 30% of the plant was scorched)

B3: CyPPO10 A167C + F360I: CyPPO10 (SEQ ID NO: 2) PPO variant (protein)
chain: B1 chain with A167C, F360I
modifications: Synthetic CyPPO10
[2]
  Activity (%): 48%
[5]
  Average injury index: 2 (Over 20% and less than 30% of the plant was scorched)

B4: CyPPO13 WT: PPO derived from Synechococcus sp. JA-3-3Ab strain, amino acid sequence SEQ ID NO: 4 (protein)
chain: MNPATPEPLNAEVVVIGAGISGLTLAWRLQQGLSARGGSPQAVLLAEASSRVGGCISTQSKDGYRWEEGPNSFTPTPALLNLIAEVGLTDQLVLADAKLPRYIYWEGALLPVPLSPAAALGSRLLSVGGKLRALQGLLGFVPPPPGHEETVRQFFRRQLGSEVAERLVEPFTSGVYAGDPDQLSAVAAFPRVAGLEERYGSLFAGALQALRQRPQPSPAAIQPPPKRGQLGNLRQGLQQLPEALAQKLGDSLRLGWRALQLKRAGELYWVGFETPEGSRWVAARQVVLALPAYEAAALLQELNPPASQLLAEILYPPVAVVALAYPQEALPQPLRGFGHLIPRSQGLRTLGTIWASCLFPERAPQGYHSFLSFLGGATDAALARRRGIPPIPALSPEERAQIAHAELSQVLLTRRAEPVYLGERLWPRAIPQYTLGHRQRIAQVQAHLASQTPGIWVCANYLDGVALGDCVRRAEALAQQLLSQV
modifications: Synthetic CyPPO13
[6]
  Activity (%): 100%
[3]
  Seed germination in media containing herbicides: germinated
[4]
  Growth of BT3 transformant on medium containing no herbicide: recovered

B5: AtPPO1 WT: wild type Arabidopsis thaliana PPO1, PPO susceptible (SEQ ID NO: 5) (protein, listed as Arabidopsis thaliana)
chain: MELSLLRPTTQSLLPSFSKPNLRLNVYKPLRLRCSVAGGPTVGSSKIEGGGGTTITTDCVIVGGGISGLCIAQALATKHPDAAPNLIVTEAKDRVGGNIITREENGFLWEEGPNSFQPSDPMLTMVVDSGLKDDLVLGDPTAPRFVLWNGKLRPVPSKLTDLPFFDLMSIGGKIRAGFGALGIRPSPPGREESVEEFVRRNLGDEVFERLIEPFCSGVYAGDPSKLSMKAAFGKVWKLEQNGGSIIGGTFKAIQERKNAPKAERDPRLPKPQGQTVGSFRKGLRMLPEAISARLGSKVKLSWKLSGITKLESGGYNLTYETPDGLVSVQSKSVVMTVPSHVASGLLRPLSESAANALSKLYYPPVAAVSISYPKEAIRTECLIDGELKGFGQLHPRTQGVETLGTIYSSSLFPNRAPPGRILLLNYIGGSTNTGILSKSEGELVEAVDRDLRKMLIKPNSTDPLKLGVRVWPQAIPQFLVGHFDILDTAKSSLTSSGYEGLFLGGNYVAGVALGRCVEGAYETAIEVNNFMSRYAYK
modifications: PEPTIDE (1)..(537) Wild type AtPPO1
[4]
  Growth of BT3 transformant on medium containing no herbicide: recovered

B6: AtPPO1 SLYM: mutated A. thaliana PPO1 with amino acid substitutions Y426M and S305L, PPO-inhibiting herbicide tolerant control (protein)
chain: B5 chain with S305L, Y426M
modifications: Synthetic Mutant type AtPPO1
[4]
  Growth of BT3 transformant on medium containing no herbicide: recovered
